Data published in patent US11584938B2, “Plant EPSPS mutant containing L195P and S247G mutations and encoding gene and use thereof” (GEVOTO LLC, priority 2017, dated 2023).
Where a chain is given by its changes, count along the chain named. Entries after “also recorded” stand apart in the source; their conditions may differ.

B1: T1: wheat EPSPS mutant, SEQ ID NO: 16, mutation S269(247)G (protein)
chain: MATSVAAPAAPAGAEEVVLQPIREISGAVQLPGSKSLSNRILLLSALSEGTTVVDNLLNSEDVHYMLEALEALGLSVEADKVAKRAVVVGCGGRFPVEKDAKEEVKLFLGNAGTAMRPLTAAVVAAGGNATYVLDGVPRMRERPIGDLVVGLQQLGADVDCFLGTNCPPVRINGKGGLPGGKVKLSGSISSQYLSSLLMAAPLALEDVEIEIIDKLISVPYVEMTLKLMEHFGVTAEHSDSWDRFYIKGGQKYKSPGNAYVEGDASSAGYFLAGAAITGGTVTVEGCGTTSLQGDVKFAEVLEMMGAKVTWTDTSVTVTGPPRQPFGRKHLKAVDVNMNKMPDVAMTLAVVALFADGPTAIRDVASWRVKETERMVAIRTELTKLGATVEEGPDYCIITPPEKLNITAIDTYDDHRMAMAFSLAACAEVPVTIRDPGCTRKTFPNYFDVLSTFVKN
B2: T2: wheat EPSPS mutant, SEQ ID NO: 18, merely containing the mutation P118(101)S; control (protein)
chain: B1 chain with P118S, G269S
B3: T3: wheat EPSPS mutant, SEQ ID NO: 20, mutations S269(247)G and P118(101)S (protein)
chain: B1 chain with P118S
B4: T4: wheat EPSPS mutant, SEQ ID NO: 22, mutation L216(195)P (protein)
chain: B1 chain with L216P, G269S
B5: T5: wheat EPSPS mutant, SEQ ID NO: 24, mutations L216(195)P and S269(247)G (protein)
chain: B1 chain with L216P
B6: T6: wheat EPSPS mutant, SEQ ID NO: 26, mutations L216(195)P, S269(247)G and P118(101)S (protein)
chain: B1 chain with P118S, L216P
B7: R0: wild-type rice EPSPS, amino acid sequence SEQ ID NO: 28; control (protein, listed as Oryza sativa)
chain: MASNAAAAAAKAEEIVLQPIREISGAVQLPGSKSLSNRILLLSALSEGTTVVDNLLNSEDVHYMLEALKALGLSVEADKVAKRAVVVGCGGKFPVEKDAKEEVQLFLGNAGTAMRPLTAAVTAAGGNATYVLDGVPRMRERPIGDLVVGLKQLGADVDCFLGTECPPVRVKGIGGLPGGKVKLSGSISSQYLSALLMAAPLALGDVEIEIIDKLISIPYVEMTLRLMERFGVKAEHSDSWDRFYIKGGQKYKSPGNAYVEGDASSASYFLAGAAITGGTVTVQGCGTTSLQGDVKFAEVLEMMGAKVTWTDTSVTVTGPPREPYGKKHLKAVDVNMNKMPDVAMTLAVVALFADGPTAIRDVASWRVKETERMVAIRTELTKLGASVEEGPDYCIITPPEKLNITAIDTYDDHRMAMAFSLAACADVPVTIRDPGCTRKTFPNYFDVLSTFVRN
B8: R1: rice EPSPS mutant, SEQ ID NO: 30, mutation L214(195)P (protein)
chain: B7 chain with L214P
B9: R2: rice EPSPS mutant, SEQ ID NO: 32, merely containing the mutation P116(101)S; control (protein)
chain: B7 chain with P116S
B10: R3: rice EPSPS mutant, SEQ ID NO: 34, mutations L214(195)P and P116(101)S (protein)
chain: B7 chain with P116S, L214P
B11: R4: rice EPSPS mutant, SEQ ID NO: 36, mutation S267(247)G (protein)
chain: B7 chain with S267G

System: double knockout E. coli (EPSPS defective E. coli, EDCE)
Test: growth of EPSPS defective E. coli transformed by the EPSPS gene in M9 culture media containing different glyphosate concentrations
Assay type: cell-based, E. coli DH5α
Conditions: for EPSPS enzyme activity: concluded from growth of defective E. coli at 0 mM glyphosate
From the text: A method for detecting the glyphosate resistance of the soybean EPSPS mutant G1 provided in Example 1 and the soybean EPSPS mutant G3 provided in Example 2 is as follows:
according to the sequence of the nucleic acid molecule provided in the example, synthesizing the encoding gene that encodes the soybean EPSPS mutant G1 or G3 using a chemical synthesis method, introducing enzyme sites (Pac1 and Sbf1) at two ends thereof, connecting to an expression vector (for example, a pADV5 vector, the structure of which is as shown in FIG. 15) that has undergone the same restriction enzyme digestion treatment under the action of ligase after restriction enzyme digestion, then transforming double knockout E. coli, picking positive colonies after verification, inoculating the positive colonies to M9 culture media containing different glyphosate concentrations for growth, and observing the growth situation of the E. coli.
The wild-type soybean EPSPS (with an amino acid sequence represented by SEQ ID NO: 2 and an encoding gene sequence represented by SEQ ID NO: 1) and the soybean EPSPS mutant G2 (with an amino acid sequence represented by SEQ ID NO: 6, and a corresponding encoding gene sequence represented by SEQ ID NO: 5) merely containing the mutation P114(101)S were taken as controls.
In the above, the M9 basal culture medium can be prepared by the following method:
5×M9 salt solution: 6.78 g of Na2HPO4, 3.0 g of KH2PO4, 0.5 g of NaCl, and 1.0 g of NH4Cl were weighed, added with ddH2O to 200 ml, and subjected to high-temperature and high-pressure sterilization treatment;
20% glucose: 20 g of glucose was weighed, added with 80 ml of ddH2O for dissolving, diluted to 100 ml, and subjected to filtration and sterilization treatment;
1.0 M MgSO4: 24.6 g of MgSO4-7H2O was weighed, dissolved with 80 ml of ddH2O, diluted to 100 ml, and subjected to sterilization treatment;
1.0 M CaCl2: 11.1 g of CaCl2 was weighed, dissolved with 80 ml of ddH2O, diluted to 100 ml, and subjected to sterilization treatment; and
1000 ml of the M9 basal culture media were prepared by adding ddH2O to 200 ml of 5×M9 salt solution, 20 ml of 20% glucose, 2 ml of 1.0 M MgSO4 and 0.1 ml of 1.0 M CaCl2 to make up to 1000 ml.
In the above, the E. coli used was double knockout E. coli, namely, EPSPS defective E. coli (E. coli DH5α with EPSPS gene and C-P Lyase gene being knocked out, named as EDCE, wherein for a preparation method thereof, reference can be made to a Chinese invention patent with the filing number CN2016103256926).
The glyphosate resistance of the soybean EPSPS mutant G4 provided in Example 3 and the soybean EPSPS mutant G5 provided in Example 4 was verified with reference to the detection method in Experiment Example 1.
The wild-type wheat EPSPS (with an amino acid sequence represented by SEQ ID NO: 14, and a corresponding encoding gene sequence represented by SEQ ID NO: 13) and the wheat EPSPS mutant T2 (with an amino acid sequence represented by SEQ ID NO: 18, and a corresponding encoding gene sequence represented by SEQ ID NO: 17) merely containing the mutation P118(101)S were taken as controls to verify the glyphosate resistance of the wheat EPSPS mutants T1 and T3 provided in Example 5 and Example 6, and reference can be made to Experiment Example 1 for the method.
A method for verifying the glyphosate resistance of the wheat EPSPS mutants T4, T5, and T6 provided in Examples 7-9 is the same as that in Experiment Example 3.
The wild-type rice EPSPS R0 (with an amino acid sequence represented by SEQ ID NO: 28, and a corresponding encoding gene sequence represented by SEQ ID NO: 27) and the rice EPSPS mutant R2 (with an amino acid sequence represented by SEQ ID NO: 32, and a corresponding encoding gene sequence represented by SEQ ID NO: 31) merely containing the mutation P116(101)S were taken as controls to verify the glyphosate resistance of the rice EPSPS mutants R1 and R3 provided in Examples 10 and 11, and reference can be made to Experiment Example 1 for the method. […]

[1] = culture media containing 0 mM glyphosate
[2] = culture media containing 1 mM glyphosate
[3] = culture media containing 5 mM glyphosate
[4] = culture media containing 10 mM glyphosate
[5] = culture media containing 20 mM glyphosate

Molecule | glyphosate resistance (overall statement) | growth of the E. coli transformed by the EPSPS [1] | growth of the E. coli transformed by the EPSPS [2] | growth of the transformed E. coli compared with E. coli transformed by the control EPSPS named in the value [2] | growth of the E. coli transformed by the EPSPS [3] | growth of the E. coli transformed by the EPSPS [4] | growth of the E. coli transformed by the EPSPS [5] | growth of the transformed E. coli compared with E. coli transformed by the control EPSPS named in the value [4] | EPSPS enzyme activity | growth of the transformed E. coli compared with E. coli transformed by the control EPSPS named in the value [3] | growth of the transformed E. coli compared with E. coli transformed by the control EPSPS named in the value [5]
B1 | have glyphosate resistance | could grow | could grow normally | obviously superior to that of the E. coli transformed by T0 | did not grow obviously | – | – | – | – | – | –
B2 | – | could grow | could grow normally | – | could grow | could grow | could grow | – | – | – | –
B3 | have glyphosate resistance | could grow | could grow normally | – | – | could grow | – | obviously superior to that of the E. coli transformed by T2 | – | – | –
B4 | – | could grow | could grow normally | – | did not grow obviously | – | – | – | normal EPSPS enzyme activity | – | –
B5 | – | could grow | could grow normally | – | grew obviously | – | – | – | normal EPSPS enzyme activity | – | –
B6 | – | could grow | could grow normally | – | could grow | – | could grow | – | normal EPSPS enzyme activity | obviously superior to that of the E. coli transformed by T2 | obviously superior to that of the E. coli transformed by T2
B7 | – | could grow | – | – | could not grow | could not grow | – | – | – | – | –
B8 | – | could grow | – | – | could grow normally | grew obviously; also recorded: could grow normally | grew obviously | – | normal EPSPS enzyme activity | – | –
B9 | – | could grow | – | – | – | could grow | could grow | – | normal EPSPS enzyme activity | – | –
B10 | – | could grow | – | – | – | could grow | – | superior to that of the E. coli transformed by R2 | normal EPSPS enzyme activity | – | –
B11 | – | could grow | – | – | – | could grow normally | grew obviously | superior to that of the E. coli transformed by R1 | normal EPSPS enzyme activity | – | –
